We go through 1 molecule from US6033903, “Method of expressing and secreting soluble extracellular domains of human gonadotropin hormone receptors” (Applied Research Systems, Ars Holding N.V., dated 2000).

The experiment addresses human follicle stimulating hormone (recombinant hFSH) (human, UniProt P01215, ^125 I label on the tracer form (which chain and residue is not stated); unlabelled in the cold competitor, the affinity resin and the cell assay). As to the kind of experiment: 125I-hFSH radioligand binding, summary of Example 2.

B1: soluble hFSHR-EC secreted from baculovirus-infected insect cells (gp67 signal peptide fusion, pAcGP67-hFSHR-EC) (receptor)
chain: ADQCHHRICHCSNRVFLCQESKVTEIPSDLPRNAIELRFVLTKLRVIQKGAFSGFGDLEKIEISQNDVLEVIEADVFSNLPKLHEIRIEKANNLLYINPEAFQNLPNLQYLLISNTGIKHLPDVHKIHSLQKVLLDIQDNINIHTIERNSFVGLSFESVILWLNKNGIQEIHNCAFNGTQLDELNLSDNNNLEELPNDVFHGASGPVILDISRTRIHSLPSYGLENLKKLRARSTYNLKKLPTLEKLVALMEASLTYPSHCCAFANWRRQISELHPICNKSILRQEVDYMTQTRGQRSSLAEDNESSYSRGFDMTYTEFDYDLCNEVVDVTCSPKPDAFNPCEDIMGYNILR
As to B1, the binding result was “binds”.
